We go through 1 substance from article PMC7422855.

For this test, the target named is human n-Glyceraldehyde-3-phosphate dehydrogenase (human) (UniProt P04406). Put plainly: SEC-MALS; Superdex S200 10/300 in 20 mM HEPES pH 7.5, 100 mM NaCl, 1 mM TCEP; 18-angle MALS detector with differential refractive index detector.

On to “human n-Glyceraldehyde-3-phosphate dehydrogenase, P04406 1-335 (enzyme; Cys152 partially oxidised to cysteine S-sulfonic acid (average occupancy 0.31±0.17 over 20 copies in crystal forms A, C and D; not significant in crystal form B); Cys152 partially oxidised to cysteine S-sulfonic acid (average occupancy 0.31±0.17 over 20 copies in crystal forms A, C and D; not significant in crystal form B); other documents disagree on this pair)”, for which the stoichiometry N (in general, the number of molecules, sites or subunits per partner or assembly) amounted to 4.
